Data taken from US20240401101A1, “A LIVE CELL ASSAY TO DETERMINE PERMEABILITY OF TEST MOLECULES TO AND/OR WITHIN THE PEPTIDOGLYCAN SCAFFOLD OF BACTERIA CELLS” (priority 2021, published 2024).

Tested on: S. aureus (ATCC 25923)
Assay: Enzymatic degradation of fluorescently labeled whole cells (mutanolysin / proteinase K), incl. BONCAT control
Assay type: cell-based, Staphylococcus aureus

B1: proteinase K: promiscuous protease (protein, UniProt P06873 106-384, looked up)
Proteinase K: AAQTNAPWGLARISSTSPGTSTYYYDESAGQGSCVYVIDTGIEASHPEFEGRAQMVKTYYYSSRDGNGHGTHCAGTVGSRTYGVAKKTQLFGVKVLDDNGSGQYSTIIAGMDFVASDKNNRNCPKGVVASLSLGGGYSSSVNSAAARLQSSGVMVAVAAGNNNADARNYSPASEPSVCTVGASDRYDRRSSFSNYGSVLDIFGPGTSILSTWIGGSTRSISGTSMATPHVAGLAAYLMTLGKTTAASACRYIADTANKGDLSNIPFGTVNLLAYNNYQA
For B1, the “cellular fluorescence of D-cystine/Mal-Fl labeled cells during enzyme treatment” value (50 μg/mL mutanolysin or 500 μg/mL proteinase K, mutanolysin read at 120 minutes) was “remained mostly unchanged” and the “cellular fluorescence of L-azidohomoalanine/DBCO-Fl labeled cells after enzyme treatment” value (BONCAT, 1 mM AHA, 25 μM DBCO-Fl) was “significant decrease”.
